# B1: hSC6.58 (antibody, human IgG1, V domains shown)
# VH: EVQLVESGGGLVQPGGSLRLSCAASGFDFSRYWMSWVRQAPGKGLEWIGDLNPDSSAINYVDSVKGRFTISRDNAKNSLYLQMNSLRAEDTAVYYCTLITTLVPYTMDFWGQGTSVTVSS
# VL: ETTLTQSPAFMSATPGDKVNISCITNTDIDDDMNWYQQKPGEAAILLISEGNGLRPGIPPRFSGSGYGTDFTLTINNIESEDAAYYFCLQSDNLPLTFGSGTKLEIKR
# notes: Humanized; also called humanized SC6.58
# B2: hSC6.23 (antibody, V domains shown)
# VH: QITLKESGPTLVKPTQTLTLTCTFSGFSLSTSNMGVGWIRQPPGKALEWLAHIWWDDDKYYSPSLKSRLTITKDTSKNQVVLTMTNMDPVDTATYYCVRSNYGYAWFAYWGQGTLVTVSS
# VL: DIQMTQSPSSLSASVGDRVTITCKASQDIYPYLNWFQQKPGKAPKTLIYRTNRLLDGVPSRFSGSGSGTDFTFTISSLQPEDIATYYCLQYDEFPLTFGAGTKLEIK
# notes: Humanized; also called humanized SC6.23
# B3: hSC6.24 (antibody, human IgG1, V domains shown)
# VH: QVQLVQSGPEVKKPGASVKVSCKASGYTFTDYAVHWVRQAPGKRLEWIGVISTYNDYTYNNQDFKGRVTMTRDTSASTAYMELSRLRSEDTAVYYCARGNSYFYALDYWGQGTSVTVSS
# VL: EIVLTQSPATLSLSPGERATLSCRASESVDSYGKSFMHWYQQKPGQAPRLLIYRASNLESGIPARFSGSGSGTDFTLTISSLEPEDFAVYYCQQSNEDPWTFGGGTKLEIKR
# B4: SC6.58 (antibody, V domains shown)
# VH: EVKLLESGGGLVQPGGSLKLSCAASGFDFSRYWMSWVRQAPGKGLEWIGDLNPDSSAINYTPSLKDKFIISRDNAKNTLYLQMSKVRSEDTALYYCTLITTLVPYTMDFWGQGTSVTVSS
# VL: ETTVTQSPASLSMAIGEKVTIRCITNTDIDDDMNWYQQKPGEPPKLLISEGNGLRPGVPSRFSSSGYGTDFVFTIENMLSEDVADYYCLQSDNLPLTFGSGTKLEIK
# notes: Murine monoclonal antibody, kappa light chain
# B5: SC6.41 (antibody, V domains shown)
# VH: EVQLQQSGAESVRSGASVKLSCTASGLNIKDYYMHWVNLRPEQGLEWIGWIDPENGDTEYAPEFQGKATMTADTSSNTAYLQLSSLTSEDTAVYYCNACNYGSAYGYWGQGTTLTVSS
# VL: DIVLTQATPSVPVTPGESVSISCRSSKSLLHTKGDTYLYWFLQRPGQSPQLLIYRMSNLASGVPDRFSGSGSGTVFTLRISRVEAEDVGVYYCMQHLEYPFTFGSGTKLEIKR
# notes: as for B4
# B6: SC6.24 (antibody, V domains shown)
# VH: QVQLQQSGPEVVRPGVSVKISCKGSGYTFTDYAVHWVKLSHAKSLEWIGVISTYNDYTYNNQDFKGKATMTVDKSSSTAYMELARLTSEDSAIYYCARGNSYFYALDYWGQGTSVTVSS
# VL: DIVLTQSPASLAVSLGQRATISCRASESVDSYGKSFMHWYQQRPGQPPKLLIYRASNLESGIPARFSGSGSRTDFTLTINPVEADDVATYYCQQSNEDPWTFGGGTKLEIK
# notes: as for B4
# B7: SC6.23 (antibody, V domains shown)
# VH: QVTLKESGPGILKPSQTLSLTCSFSGFSLSTSNMGVGWIRQPSGKGLEWLAHIWWDDDKYYNPSLKSQLTISKDTSRNQVFLKITSVDTEDTATYYCVRSNYGYAWFAYWGQGTLVTVSA
# VL: DIKMTQSPSSMYASLGERVTITCKASQDIYPYLNWFQQKPGKSPKTLIYRTNRLLDGVPSRFSGSGSGQDYSLTISSLDYEDMGIYYCLQYDEFPLTFGAGTKLELK
# notes: Murine monoclonal antibody, kappa light chain; also called murine SC6.23
# B8: SC6.21 (antibody, V domains shown)
# VH: DVQLQESGPGLVKPSQTLSLTCSVPDYSITSDYHWHWIRQFPGNKLEWMGYISSRGSTNYNPSLKNRISITHDTSENQFFLKLTSVTTEDSATYYCAGLSQLALDYWGQGTTLTVSS
# VL: DIVMSQSPSSLAVSVGEKVTLSCKSSQSLLYSSTQNNYLAWYQQTPGQSPKLLIYWASTRESGVPDRFTGSGSGTDFTLTISSVKAEDLAVYYCQQYYSYPWTFGGGTKLEIK
# notes: Murine monoclonal antibody
# B9: hSC6.41 (antibody, human IgG1, V domains shown)
# VH: QVQLVQSGAEVKKPGASVKVSCKASGYTFKDYYMHWVRQAPGQGLEWMGWIDPENGDTEYAPEFQGRVTMTRDTSTSTVYMELSSLRSEDTAVYYCNACNYGSAYGYWGQGTTLTVSS
# VL: DIVMTQSPLSLPVTPGEPASISCRSSKSLLHTKGDTYLYWFLQKPGQSPQLLIYRMSNRASGVPDRFSGSGSGTDFTLKISRVEAEDVGVYYCMQHLEYPFTFGQGTKLEIKR
# notes: Humanized; also called humanized SC6.41
# Target: T1, human PTK7, full length, expressed on transduced cells (human, UniProt Q13308 31-1070)
# T1 sequence: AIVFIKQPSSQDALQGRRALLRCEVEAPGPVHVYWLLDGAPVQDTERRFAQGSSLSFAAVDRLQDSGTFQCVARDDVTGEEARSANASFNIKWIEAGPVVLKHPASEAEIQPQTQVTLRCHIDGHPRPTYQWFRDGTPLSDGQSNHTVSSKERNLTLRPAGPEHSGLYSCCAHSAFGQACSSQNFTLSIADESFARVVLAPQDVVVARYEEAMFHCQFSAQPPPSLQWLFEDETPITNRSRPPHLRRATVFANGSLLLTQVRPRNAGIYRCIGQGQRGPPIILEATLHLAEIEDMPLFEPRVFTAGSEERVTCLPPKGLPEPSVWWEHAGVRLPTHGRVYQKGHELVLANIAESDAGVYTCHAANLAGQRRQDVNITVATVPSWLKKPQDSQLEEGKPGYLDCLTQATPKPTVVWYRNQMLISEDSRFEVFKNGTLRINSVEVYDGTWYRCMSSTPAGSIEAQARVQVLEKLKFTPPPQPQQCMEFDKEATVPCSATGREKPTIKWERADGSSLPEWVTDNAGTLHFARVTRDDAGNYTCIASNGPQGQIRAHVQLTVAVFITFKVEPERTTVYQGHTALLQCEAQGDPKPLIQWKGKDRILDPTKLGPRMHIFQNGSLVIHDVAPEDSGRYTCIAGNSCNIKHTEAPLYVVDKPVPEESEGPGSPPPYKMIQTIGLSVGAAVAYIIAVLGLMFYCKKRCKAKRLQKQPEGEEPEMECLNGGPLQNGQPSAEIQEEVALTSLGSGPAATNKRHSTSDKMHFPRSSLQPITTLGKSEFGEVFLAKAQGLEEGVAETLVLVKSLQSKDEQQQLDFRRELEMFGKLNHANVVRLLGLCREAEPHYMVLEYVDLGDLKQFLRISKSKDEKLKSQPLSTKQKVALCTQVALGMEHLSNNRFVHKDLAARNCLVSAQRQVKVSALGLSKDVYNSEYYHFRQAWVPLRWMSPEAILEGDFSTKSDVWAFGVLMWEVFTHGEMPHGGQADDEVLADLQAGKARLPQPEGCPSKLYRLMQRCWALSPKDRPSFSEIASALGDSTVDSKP
# Assay: cell-based or functional assay
row,Binder,reduction in viability of 293.PTK7 cells at 100 pM (Fab-ZAP human)
1,B1,> 80%
2,B2,> 80%
3,B3,> 80%

# Target: T1, human PTK7, full length, expressed on …
# Assay: cell-based or functional assay
# Remark: another data set of the same source
row,Binder,"EC50, saporin (Fab-ZAP) cell killing, 293.PTK7 Cells"
1,B4,10.4 pM
2,B5,2.3 pM
3,B6,2.3 pM
4,B7,1.1 pM
5,B8,30.6 pM

# Target: T2, hPTK7-His (soluble His-tagged human PTK7 extracellular domain) (human, UniProt Q13308 31-704)
# T2 construct: also called PTK7-ECD-His; monomeric recombinant hPTK7-His (isoform a)
# T2 sequence: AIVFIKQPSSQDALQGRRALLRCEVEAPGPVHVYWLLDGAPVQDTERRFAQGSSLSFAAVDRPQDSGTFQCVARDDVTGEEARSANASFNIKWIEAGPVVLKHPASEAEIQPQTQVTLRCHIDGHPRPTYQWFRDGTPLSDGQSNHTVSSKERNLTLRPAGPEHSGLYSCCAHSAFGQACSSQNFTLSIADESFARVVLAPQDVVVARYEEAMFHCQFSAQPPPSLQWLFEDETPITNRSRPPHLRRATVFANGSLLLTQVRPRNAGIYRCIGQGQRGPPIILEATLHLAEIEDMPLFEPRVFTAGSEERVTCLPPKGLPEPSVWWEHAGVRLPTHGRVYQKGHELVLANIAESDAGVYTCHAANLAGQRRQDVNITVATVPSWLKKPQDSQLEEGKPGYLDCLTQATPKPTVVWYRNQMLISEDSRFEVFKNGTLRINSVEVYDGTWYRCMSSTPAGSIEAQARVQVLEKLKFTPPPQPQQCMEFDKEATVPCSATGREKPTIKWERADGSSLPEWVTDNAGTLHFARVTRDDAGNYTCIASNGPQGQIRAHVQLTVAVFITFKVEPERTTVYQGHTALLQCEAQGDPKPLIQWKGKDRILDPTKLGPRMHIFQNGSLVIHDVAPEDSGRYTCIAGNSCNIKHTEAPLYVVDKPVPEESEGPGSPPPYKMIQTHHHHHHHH
# Assay: Biacore (superscript B); column Affinity (nM)
row,Binder,Kd
1,B4,500 pM
2,B5,1000 pM
3,B6,600 pM

# Target: T2, hPTK7-His (soluble His-tagged human …)
# Assay: ForteBio (superscript F); column Affinity (nM)
row,Binder,Kd
1,B8,< 100 pM

# Target: T3, murine PTK7-His (murine, UniProt Q8BKG3 23-696, limits assumed)
# T3 construct: also called mouse PTK7-His; mouse PTK7
# T3 sequence (looked up): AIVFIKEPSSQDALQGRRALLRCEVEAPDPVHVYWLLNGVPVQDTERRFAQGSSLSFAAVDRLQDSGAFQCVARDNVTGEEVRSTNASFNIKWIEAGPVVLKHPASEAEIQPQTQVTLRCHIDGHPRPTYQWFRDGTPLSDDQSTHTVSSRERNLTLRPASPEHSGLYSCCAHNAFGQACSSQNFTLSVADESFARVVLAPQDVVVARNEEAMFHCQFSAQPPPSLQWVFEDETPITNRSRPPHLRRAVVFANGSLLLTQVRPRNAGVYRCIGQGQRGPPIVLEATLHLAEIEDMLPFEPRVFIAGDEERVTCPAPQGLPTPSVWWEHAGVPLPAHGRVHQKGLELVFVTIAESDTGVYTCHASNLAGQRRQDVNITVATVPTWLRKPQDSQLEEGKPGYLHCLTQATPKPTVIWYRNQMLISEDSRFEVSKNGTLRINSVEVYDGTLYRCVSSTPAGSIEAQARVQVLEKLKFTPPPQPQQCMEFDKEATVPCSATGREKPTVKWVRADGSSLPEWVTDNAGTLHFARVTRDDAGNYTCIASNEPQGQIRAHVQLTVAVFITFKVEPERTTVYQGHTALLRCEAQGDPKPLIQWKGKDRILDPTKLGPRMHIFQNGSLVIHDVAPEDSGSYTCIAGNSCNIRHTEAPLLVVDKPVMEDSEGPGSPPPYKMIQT
# Assay: ForteBio, concentration series of recombinant monomeric antigen
row,Binder,binding result
1,B4,binds
2,B5,binds
3,B6,binds
4,B7,binds
5,B8,binds

# Target: T2, hPTK7-His (soluble His-tagged human …)
# Assay: Biacore (paragraph 369 names ForteBio for FIGS. 7C-7E)
row,Binder,Kd
1,B9,2100 pM
2,B4,500 pM
3,B1,1000 pM
4,B5,1000 pM
5,B6,600 pM

# Target: T2, hPTK7-His (soluble His-tagged human …)
# Assay: SPR, Biacore, antigen at 25, 12.5 and 6.25 nM, 1:1 Langmuir model; humanized construct
row,Binder,Kd
1,B2,3900 pM

# Target: T2, hPTK7-His (soluble His-tagged human …)
# Assay: SPR, Biacore, antigen at 25, 12.5 and 6.25 nM, 1:1 Langmuir model; murine parent antibody
row,Binder,Kd
1,B7,2300 pM
